From patent US20100316989A1, “METHOD FOR SCREENING AN […] OF HBV PROLIFERATION BY USING THE INTERACTION BETWEEN HBV CAPSID AND SURFACE PROTEINS BASED ON CELLULAR IMAGING” (KOREA INSTITUTE OF SCIENCE AND TECHNOLOGY, priority 2007, published 2010)

Tests used:
[1] = biological target: interaction between capsid protein and PreS protein (Hepatitis B virus genotype D subtype ayw, UniProt P03146, F97I/I116L/INS152DR/S87N/V74N); conditions: serially diluted peptide; Trx-PreS fixed on plate, purified capsid protein; FIG. 5
[2] = tested on: interaction between PreS and capsid protein (PreS-PH / Capsid-GFP) in HEK293T cells; assay type: cell-based; conditions: 50 μM peptide; transfected HEK293T cells; FIG. 6

Sequence: RQPTPISPPLRDSHPQAMQWNS (deleted L4b peptide) [PreS derived peptide, PreS derived peptide (ΔL4b peptide; ID; NO: 21]
- inhibition of the interaction between capsid protein and PreS protein (OD490) [1]: inhibited the interaction between capsid protein and PreS protein dose-dependently
- location of GFP fluorescence image of Capsid-GFP fusion protein (inhibition of interaction) [2]: located not in cell membrane but in cytoplasm of cells
